Assay results as given in patent US20190249188A1 (WHITEHEAD INSTITUTE FOR BIOMEDICAL RESEARCH, published 2019).

Molecular target: the molecule itself
Assay: X-ray crystallography, BAR/acetyl-CoA and BAR/CoA/phosphinothricin complexes
Description: BAR protein was incubated with 1 mM acetyl-CoA for >2 hour prior to setting crystal trays. Crystals of BAR were obtained after 3 days at 20° C. in hanging drops containing 1 μL of protein solution (7.5 mg/ml) and 1 μL of reservoir solution (0.18 M calcium acetate, 0.1 M Tris-HCl pH 7, 18% (w/v) PEG 3000, 0.2% N-nonyl β-D-glucopyranoside, 1 mM acetyl-CoA). Several crystals were soaked in reservoir solution supplemented with 30 mM L-phosphinothricin for 30-60 min before freezing. Crystals were frozen in reservoir solution supplemented with 15% ethylene glycol. […] Co-crystallization screens and soaking experiments were performed using aminoadipate and tryptophan at final concentrations between 5-30 mM. However, we could not identify electron density supporting the presence of these substrates within the resolved crystal structures.
X-ray diffraction data were collected on the 24-ID-C beam line of the Structural Biology Center at the Advanced Photon Source (Argonne National Laboratory) equipped with a Pixel Array Detector (Pilatus-6MF). […] Initial phases were determined by molecular replacement using Phaser under Phenix (Adams, P. D. et al., Acta Crystallographica. Section D, Biological Crystallo. 66, 213-221, (2010)). […]

B1: Wildtype bialaphos resistance (BAR) protein from Streptomyces hygroscopicus (enzyme)
chain: MSPERRPADIRRATEADMPAVCTIVNHYIETSTVNFRTEPQEPQEWTDDLVRLRERYPWLVAEVDGEVAGIAYAGPWKARNAYDWTAESTVYVSPRHQRTGLGSTLYTHLLKSLEAQGFKSVVAVIGLPNDPSVRMHEALGYAPRGMLRAAGFKHGNWHDVGFWQLDFSLPVPPRPVLPVTEI
notes: the entries describe its self-association into a homodimer in the crystal; Expressed in E. coli from pProEX Hta as 6xHis-BAR; Crystallised with acetyl-CoA, or with CoA and phosphinothricin; also called WT BAR; wild-type BAR
binding result: binds
